This is an account of results in US20130224798A1.

Changes are numbered by the printed parent chain.

For this test, the target named is Toll-like Receptor 5 (TLR5) constitutively expressed by HEK293 cells (UniProt O60602). In words: cell-based or functional assay.

B1: STF2.HA1-2mutHis(PR8), produced in Baculovirus (protein)
chain: AQVINTNSLSLLTQNNLNKSQSALGTAIERLSSGLRINSAKDDAAGQAIANRFTANIKGLTQASRNANDGISIAQTTEGALNEINNNLQRVRELAVQSANSTNSQSDLDSIQAEITQRLNEIDRVSGQTQFNGVKVLAQDNTLTIQVGANDGETIDIDLKQINSQTLGLDSLNVQKAYDVKDTAVTTKAYANNGTTLDVSGLDDAAIKAATGGTNGTASVTGGAVKFDADNNKYFVTIGGFTGADAAKNGDYEVNVATDGTVTLAAGATKTTMPAGATTKTEVQELKDTPAVVSADAKNALIAGGVDATDANGAELVKMSYTDKNGKTIEGGYALKAGDKYYAADYDEATGAIKAKTTSYTAADGTTKTAANQLGGVDGKTEVVTIDGKTYNASKAAGHDFKAQPELAEAAAKTTENPLQKIDAALAQVDALRSDLGAVQNRFNSAITNLGNTVNNLSEARSRIEDSDYATEVSNMSRAQILQQAGTSVLAQANQVPQNVLSLLASGSGSGSKGAAPLQLGKCNIAGWLLGNPECDPLLPVRSWSDIAETPNSENGICYPGDFIDYEELREQLSSVSSFERFEIFPKESSWPNHNTNGVTAACSHEGKSSFYRNLLWLTEKEGSYPKLKNSYVNKKGKEVLVLWGIHHPPNSKEQQNLYQNENAYVSVVTSNYNRRFTPEIAERPKVRDQAGRMNYYWTLLKPGDTIIFEANGNLIAPMYAFALSRGFGSGIITSHHHHHH
In turn, B1 came in with a TLR activity (EC50, ng/ml) of 900 ng/mL.

B2: STF2.HA1-2(PR8), produced in E. coli (protein)
chain: MAQVINTNSLSLLTQNNLNKSQSALGTAIERLSSGLRINSAKDDAAGQAIANRFTANIKGLTQASRNANDGISIAQTTEGALNEINNNLQRVRELAVQSANSTNSQSDLDSIQAEITQRLNEIDRVSGQTQFNGVKVLAQDNTLTIQVGANDGETIDIDLKQINSQTLGLDSLNVQKAYDVKDTAVTTKAYANNGTTLDVSGLDDAAIKAATGGTNGTASVTGGAVKFDADNNKYFVTIGGFTGADAAKNGDYEVNVATDGTVTLAAGATKTTMPAGATTKTEVQELKDTPAVVSADAKNALIAGGVDATDANGAELVKMSYTDKNGKTIEGGYALKAGDKYYAADYDEATGAIKAKTTSYTAADGTTKTAANQLGGVDGKTEVVTIDGKTYNASKAAGHDFKAQPELAEAAAKTTENPLQKIDAALAQVDALRSDLGAVQNRFNSAITNLGNTVNNLSEARSRIEDSDYATEVSNMSRAQILQQAGTSVLAQANQVPQNVLSLLAKGIAPLQLGKCNIAGWLLGNPECDPLLPVRSWSYIVETPNSENGICYPGDFIDYEELREQLSSVSSFERFEIFPKESSWPNHNTNGVTAACSHEGKSSFYRNLLWLTEKEGSYPKLKNSYVNKKGKEVLVLWGIHHPPNSKEQQNLYQNENAYVSVVTSNYNRRFTPEIAERPKVRDQAGRMNYYWTLLKPGDTIIFEANGNLIAPMYAFALSRGFGSGIITS
In turn, B2 registered a TLR5 activity (EC50, ng/ml) of 0.15 ng/mL.

B3: STF2.HA1-2(PR8)mut, produced in E. coli (protein)
chain: B2 chain with I509A, Y540D, V542A
Molecule B3 came in with a TLR5 activity (EC50, ng/ml) of 1.2 ng/mL.

B4: STF2.HA1-3(PR8), produced in E. coli (protein)
chain: MAQVINTNSLSLLTQNNLNKSQSALGTAIERLSSGLRINSAKDDAAGQAIANRFTANIKGLTQASRNANDGISIAQTTEGALNEINNNLQRVRELAVQSANSTNSQSDLDSIQAEITQRLNEIDRVSGQTQFNGVKVLAQDNTLTIQVGANDGETIDIDLKQINSQTLGLDSLNVQKAYDVKDTAVTTKAYANNGTTLDVSGLDDAAIKAATGGTNGTASVTGGAVKFDADNNKYFVTIGGFTGADAAKNGDYEVNVATDGTVTLAAGATKTTMPAGATTKTEVQELKDTPAVVSADAKNALIAGGVDATDANGAELVKMSYTDKNGKTIEGGYALKAGDKYYAADYDEATGAIKAKTTSYTAADGTTKTAANQLGGVDGKTEVVTIDGKTYNASKAAGHDFKAQPELAEAAAKTTENPLQKIDAALAQVDALRSDLGAVQNRFNSAITNLGNTVNNLSEARSRIEDSDYATEVSNMSRAQILQQAGTSVLAQANQVPQNVLSLLANSENGICYPGDFIDYEELREQLSSVSSFERFEIFPKESSWPNHNTNGVTAACSHEGKSSFYRNLLWLTEKEGSYPKLKNSYVNKKGKEVLVLWGIHHPPNSKEQQNLYQNENAYVSVVTSNYNRRFTPEIAERPKVRDQAGRMNYYWTLLKPGDTIIFEANGNLIAPMYAFALSRG
In the case of B4, the TLR5 activity (EC50, ng/ml) came to 1.2 ng/mL.

B5: ngSTF2.HA1-2mutHis(PR8), produced in Baculovirus (protein)
chain: AQVINTNSLSLLTQNNLQKSQSALGTAIERLSSGLRINSAKDDAAGQAIANRFTANIKGLTQASRNANDGISIAQTTEGALNEINNNLQRVRELAVQSAQSTNSQSDLDSIQAEITQRLNEIDRVSGQTQFNGVKVLAQDNTLTIQVGANDGETIDIDLKQINSQTLGLDSLNVQKAYDVKDTAVTTKAYANQGTTLDVSGLDDAAIKAATGGTQGTASVTGGAVKFDADNNKYFVTIGGFTGADAAKNGDYEVNVATDGTVTLAAGATKTTMPAGATTKTEVQELKDTPAVVSADAKNALIAGGVDATDANGAELVKMSYTDKNGKTIEGGYALKAGDKYYAADYDEATGAIKAKTTSYTAADGTTKTAANQLGGVDGKTEVVTIDGKTYQASKAAGHDFKAQPELAEAAAKTTENPLQKIDAALAQVDALRSDLGAVQNRFNSAITNLGNTVNQLSEARSRIEDSDYATEVSQMSRAQILQQAGTSVLAQANQVPQNVLSLLASGSGSGSKGAAPQLGKCNIAGWLLGNPECDPLLPVRSWSDIAETPNSENGICYPGDFIDYEELREQLSSVSSFERFEIFPKESSWPNHNTNGVTAACSHEGKSSFYRNLLWLTEKEGSYPKLKNSYVNKKGKEVLVLWGIHHPPNSKEQQNLYQNENAYVSVVTSNYNRRFTPEIAERPKVRDQAGRMNYYWTLLKPGDTIIFEANGNLIAPMYAFALSRGFGSGIITSHHHHHH
As to B5, the TLR activity (EC50, ng/ml) stood at 9 ng/mL.

B6: STF2.EIII+ (protein)
chain: MAQVINTNSLSLLTQNNLNKSQSALGTAIERLSSGLRINSAKDDAAGQAIANRFTANIKGLTQASRNANDGISIAQTTEGALNEINNNLQRVRELAVQSANSTNSQSDLDSIQAEITQRLNEIDRVSGQTQFNGVKVLAQDNTLTIQVGANDGETIDIDLKQINSQTLGLDSLNVQKAYDVKDTAVTTKAYANNGTTLDVSGLDDAAIKAATGGTNGTASVTGGAVKFDADNNKYFVTIGGFTGADAAKNGDYEVNVATDGTVTLAAGATKTTMPAGATTKTEVQELKDTPAVVSADAKNALIAGGVDATDANGAELVKMSYTDKNGKTIEGGYALKAGDKYYAADYDEATGAIKAKTTSYTAADGTTKTAANQLGGVDGKTEVVTIDGKTYNASKAAGHDFKAQPELAEAAAKTTENPLQKIDAALAQVDALRSDLGAVQNRFNSAITNLGNTVNNLSEARSRIEDSDYATEVSNMSRAQILQQAGTSVLAQANQVPQNVLSLLRKGNSKLEGQLEFPRTSMEKLQLKGTTYGVCSKAFKFLGTPADTGHGTVVLELQYTGTDGPCKVPISSVASLNDLTPVGRLVTVNPFVSVATANAKVLIELEPPFGDSYIVVGRGEQQINHHWHKSGSSIGK
B6 registered a TLR-5 EC50 (batch 052) greater than 5000 ng/mL, a TLR-5 EC50 (batch 054) of 1200 ng/mL and a TLR-5 EC50 (batch 057) of 198 ng/mL.
